Experimental data published in patent US20020155114A1 (published 2002).

B1: scFv 1F3 (scFv)
scFv: EVQLQQSGAELVKPGASVKLSCKASGYTFTSFWMHWVKQAPGRGLEWIGRLDPNSGETKYNEKFKSKATLTVDKPSSTAYMELSSLTSEDSAVYYCAREAYGYWNFDVWGTGTTVTVSSGGGGSGGGGSGGGGSDIELTQSPASMSASPGEKVTMTCRATSSVSSSYLHWYQQKSGASPKLWIYSASNLASGVPSRFSGSGSGTSYSLTISSVEAEDAATYYCQQYIGYPYTFGGGTKLEIKR
B2: scFv S25 (scFv)
scFv: QVKLQQSGAELVRPGASVKLSCKASGYSLTSYWMNWVKQRPGQGLEWIGMIHPSDSDTRFNQKFEDKATLTVDTSSSTAYMQLSSPTSEDSAVYYCARGLYNGFWYFDVWGQGTTVTVSSGGGGSGGGGSGGGGSDIELTQSPALMAASPGEKVIITCSVSSSISSSNLHWYQQKSGTSPKPWIYGTSNLASGVPVRFSGSGSGTSYSLTISSMEAEDAATYYCQQWSSYPLTFGAGTKLEIKR
B3: scFv C25 (scFv)
scFv: QVQLQESGGGLVKPGGSLKLSCAASGFTFSDYYMYWVRQTPEKRLEWVATISDGGSYTYYPDSVKGRFTISRDNAKNNLYLQMSSLKSEDTAMYYCSRYRYDDAMDYWGQGTTVTVSSGGGGSGGGGSGGGGSDIELTQSPASLAVSLGQRATISCRASESVDSYGHSFMQWYQQKPGQPPKLLIYRASNLEPGIPARFSGSGSGTDFTLTINPVEADDVATYYCQQSNEDPFTFGSGTKLEIKR
B4: scFv 1C6 (scFv)
scFv: QIQLLQSGGGVVQPGRSLRLSCAASGFTFSSYAMHWVRQAPGKGLEWVAVISYDGSNKYYADSVKGRFTISRDNSKNTLYLQMNSLRAEDTAVYYCARDWSEGYYYYGMDVWGQGTTVIVSSGGGGSGGGGSGGGGSDIELTQSPASLAVSLGRRATTSCRASESVEYYGTSLMQWYQQKPGQPPKLLIYAASNVESGVPARFSGSGSGTDFSLNIHPVEEEDIAMYFCQQSRKVPWTFGGGTKLEIKR

Assays:
[1] = target: T1, BoNT/A Hc (C-terminal domain of botulinum neurotoxin type A heavy chain, binding domain) (Clostridium botulinum (type A serotype), UniProt P0DPI0 860-1296); assay: SPR (BIAcore), BoNT/A Hc coupled to CM5 chip, purified scFv in flow
T1 sequence (P0DPI0 860-1296): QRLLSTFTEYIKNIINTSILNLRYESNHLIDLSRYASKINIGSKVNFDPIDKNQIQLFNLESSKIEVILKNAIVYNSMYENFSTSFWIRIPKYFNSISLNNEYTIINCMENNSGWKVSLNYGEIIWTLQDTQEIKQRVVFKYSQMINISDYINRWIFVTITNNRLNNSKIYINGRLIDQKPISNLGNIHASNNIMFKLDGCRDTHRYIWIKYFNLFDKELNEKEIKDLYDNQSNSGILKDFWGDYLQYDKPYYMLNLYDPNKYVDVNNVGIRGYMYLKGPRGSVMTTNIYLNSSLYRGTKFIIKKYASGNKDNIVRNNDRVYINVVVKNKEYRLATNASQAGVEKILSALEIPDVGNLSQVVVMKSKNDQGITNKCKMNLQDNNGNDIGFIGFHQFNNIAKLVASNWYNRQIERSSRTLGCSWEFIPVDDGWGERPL

[2] = target: T1, BoNT/A Hc (C-terminal domain of …)
[3] = target: botulinum neurotoxin type A (BoNT/A), pure holotoxin (Clostridium botulinum (type A serotype), UniProt P0DPI0 2-1296); assay: cell-based or functional assay
botulinum neurotoxin type A (BoNT/A), pure holotoxin, sequence (P0DPI0 2-1296 limits assumed): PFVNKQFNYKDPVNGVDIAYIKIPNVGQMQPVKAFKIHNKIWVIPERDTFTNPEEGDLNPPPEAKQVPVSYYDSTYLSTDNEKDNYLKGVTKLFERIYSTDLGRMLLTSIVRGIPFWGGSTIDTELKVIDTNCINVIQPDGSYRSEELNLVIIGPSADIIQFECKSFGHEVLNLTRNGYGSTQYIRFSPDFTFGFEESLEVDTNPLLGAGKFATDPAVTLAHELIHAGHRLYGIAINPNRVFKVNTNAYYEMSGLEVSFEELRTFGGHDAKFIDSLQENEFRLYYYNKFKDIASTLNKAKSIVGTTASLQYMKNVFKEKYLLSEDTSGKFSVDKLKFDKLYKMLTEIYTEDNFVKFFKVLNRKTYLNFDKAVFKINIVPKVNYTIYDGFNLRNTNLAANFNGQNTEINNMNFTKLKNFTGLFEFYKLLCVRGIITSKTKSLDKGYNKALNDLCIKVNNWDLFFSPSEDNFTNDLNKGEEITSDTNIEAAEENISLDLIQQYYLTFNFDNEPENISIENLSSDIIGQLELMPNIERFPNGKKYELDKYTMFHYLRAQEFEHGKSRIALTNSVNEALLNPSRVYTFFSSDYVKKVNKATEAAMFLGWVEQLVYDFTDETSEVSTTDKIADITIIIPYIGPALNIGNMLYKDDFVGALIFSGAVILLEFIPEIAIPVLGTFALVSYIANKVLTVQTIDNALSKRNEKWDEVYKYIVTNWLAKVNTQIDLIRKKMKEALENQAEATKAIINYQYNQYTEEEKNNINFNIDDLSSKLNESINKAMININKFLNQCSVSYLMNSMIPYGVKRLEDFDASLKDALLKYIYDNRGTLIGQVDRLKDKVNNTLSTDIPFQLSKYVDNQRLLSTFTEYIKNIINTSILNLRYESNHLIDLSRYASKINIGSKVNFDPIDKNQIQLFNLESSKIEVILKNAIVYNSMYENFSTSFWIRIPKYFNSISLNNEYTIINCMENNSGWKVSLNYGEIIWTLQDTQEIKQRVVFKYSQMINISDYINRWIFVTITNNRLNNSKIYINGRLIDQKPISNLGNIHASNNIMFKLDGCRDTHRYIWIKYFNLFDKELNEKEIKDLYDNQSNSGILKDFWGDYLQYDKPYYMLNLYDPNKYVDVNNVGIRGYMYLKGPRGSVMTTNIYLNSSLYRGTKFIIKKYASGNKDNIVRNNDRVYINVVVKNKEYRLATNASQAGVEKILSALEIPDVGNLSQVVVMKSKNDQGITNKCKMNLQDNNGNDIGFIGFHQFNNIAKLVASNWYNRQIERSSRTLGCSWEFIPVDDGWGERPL

| Binder | koff [1] | kon [1] | Kd [2] | prolongation of the time to neuroparalysis (against BoNT/A alone) [3] |
| --- | --- | --- | --- | --- |
| B1 | 0.011 s⁻¹ | 920000 M⁻¹ s⁻¹ | 12 nM | – |
| B2 | 0.00082 s⁻¹ | 11000 M⁻¹ s⁻¹ | 73 nM | 1.5 fold |
| B3 | – | – | – | 2.7 fold |
| B4 | 0.0025 s⁻¹ | 130000 M⁻¹ s⁻¹ | 20 nM | – |
